B1: RHOBTB2 (parent)
chain: NQEITKAFHVRRTNRVKECLAKGT

Variants of: B1
Assay: protein stability index of a GFP-peptide fusion (GPS, HEK-293T) (PSI 1-6); higher = more stable
Conditions: c terminus: a fixed tail appended
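Also: lentivirally expressed fusions sorted by FACS into six bins by GFP to DsRed ratio, PSI derived from sequencing read proportions per bin multiplied by bin number.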

Protein stability index, by site and new letter:
K17: E 3.04, F 2.06, C 2.22, S 3.63, D 3.64, H 2.94, V 2.26, R 2.47, M 2.54, W 2.3, Q 2.55, G 2.74, Y 2.36, N 2.92, T 3.15, P 2.4, L 3.12, I 1.75
L20: K 3.83, W 2.22, M 3.59, Y 2.58, D 3.98, T 3.45, F 3.44, E 4.03, R 2.74, N 3.27, H 2.84, Q 3.74, P 2.39, I 4.41, G 2.97, V 4.62, S 4.04
R11: P 4.36, W 2.61, L 3.21, F 3.62, D 4.01, H 3.94, V 2.22, K 3.62, A 4.09, Y 2.94, Q 4.43, C 3, S 3.99, T 3.82, G 4.05, E 4.25, N 4.05, I 2.43, M 2.81
E18: S 2.59, L 2.83, M 2.75, Y 2.67, D 3.47, T 3.93, A 3.08, R 2.74, V 3.4, I 1.94, H 2.58, N 2.92, K 3.08, P 2.59, W 2.23, F 2.59, G 2.88, Q 2.87
A21: D 3.83, N 3.42, H 2.35, C 1.94, W 2.28, L 2.61, S 2.48, Y 2.83, F 2.85, K 3.15, M 2.23, P 3.38, I 2.27, T 3.73, V 2.8, E 3.63, Q 2.65
C19: F 2.77, G 3.41, D 3.13, W 2.35, I 2.5, R 2.9, P 3.11, N 3.27, V 3.08, M 2.78, E 3.45, Q 3.35, H 2.59, Y 2.33, A 3.42, T 3.65, K 3.46, S 2.81
K6: N 3.25, R 2.87, Y 2.25, V 2.1, T 3.43, C 2.21, F 2.97, G 3.49, L 2.84, H 3.87, M 2.29, D 4, W 2.34, E 4.03, S 2.77, I 1.51, P 4.09, Q 3.18
N14: I 3.58, Y 1.82, D 3.82, S 2.48, M 2.54, F 2.15, W 2.15, E 4.4, T 2.95, V 2.83, G 3.17, Q 3.09, L 3.09, C 1.88, R 2.97, A 4.05, P 3.38, H 3.43, K 3.15
F8: D 4.67, Y 3.37, N 4.39, P 4.53, M 4.77, T 4.5, W 2.94, A 4.6, L 3.77, R 4.67, S 4.87, I 4.37, V 4.46, Q 4.48, K 4.15, E 4.62, H 4.73, G 4.63, C 4.96
I4: P 4.43, N 3.38, M 4.25, S 4.49, G 4.42, A 4.92, R 3.72, F 3.46, H 4.13, K 3.75, L 3.51, W 3.21, T 5.01, E 4.32, D 4.37
A7: D 3.82, E 4.16, P 4.3, V 1.02, M 2.48, K 3.51, N 3.2, L 2.85, W 3.34, C 2.94, Q 3.5, H 2.52, T 3.11, R 3.76, Y 2.29
T13: D 4.09, N 3.54, Q 3.93, M 3.57, P 3.98, A 3.72, E 3.97, I 2.1, C 2.78, W 2.02, L 3.32, H 3.36, K 2.79, S 3.96, Y 1.78, G 2.49
R12: W 2.38, E 4.16, D 3.78, Y 2.67, P 3.5, C 2.68, A 4.05, Q 3.93, L 2.16, T 3.69, N 3.92, V 2.83, F 2.16, S 3.95, K 4.31, M 3.29, G 4.51, H 3.72, I 2.37
K22: L 2.61, A 4.19, F 1.88, R 3.67, E 3.87, D 3.64, V 2.3, H 3.03, W 2.06, T 3.74, M 2.73, P 3.04, C 3.3, I 2.58, N 3.18, Q 3.28, S 3.86
V10: Q 3.84, R 3.91, D 4.25, C 3.62, E 4.71, T 4.3, I 3.25, K 4.42, H 4.46, Y 3.78, N 3.92, G 3.46, W 3.35, L 3.08, A 4.09, F 3.39, P 4.01
R15: W 2.58, P 3.29, T 3.87, D 4.21, Y 2.86, F 2.84, C 3.27, L 3.36, V 3.73, G 2.9, Q 3.87, A 3.66, S 3.54, K 3.29, M 3.78, N 3.48, I 3.12
H9: M 2.08, G 4.27, S 2.98, W 2.5, D 4.12, V 2.4, N 4.24, R 2.87, Y 3.2, I 3.08, T 3.31, F 2.55, L 2.77, C 2.65, E 4.58, A 2.45
V16: N 3.41, W 3.4, I 2.91, T 3.02, S 2.95, C 2.51, K 3.41, R 3.21, D 4.7, P 4.09, E 3.45, Q 2.79, L 3.92, H 2.88, F 2.48, Y 1.97, M 2.8, A 2.78
E3: Y 2.23, W 3.8
T5: C 2.04, L 2.86, M 3.42, A 3.75, S 3.48, Y 3.46, K 4.06, D 3.84, E 4.16, F 2.67, G 2.21, P 3.88, W 3, V 3.51, R 3.7, N 3.22, H 4.29, I 4.04, Q 4.06

Source: the supplement of paper PMC10567573
